Laboratory results taken from US20110126301A1 (WALTER AND ELIZA HALL INSTITUTE OF MEDICAL RESEARCH, published 2011).

Experiments:
[1] = target: T1, human 5B6 (CLEC9A), membrane bound (human, UniProt Q6UXN8 1-241); assay: flow cytometry on transiently transfected 293T cells; anti-FLAG 9H10-biotin and streptavidin-PE
T1 construct: Full length on transfectant cells or native on human blood BDCA-3+ DC; also called h5B6; HEEE9341
Description: To identify binding partners for the 5B6 molecule, the inventors generated soluble FLAG-tagged m5B6 and h5B6 which encompassed the ectodomain of 5B6 including the stalk region and the C-type lectin-like domain (CTLD), denoted in FIG. 11A as “Original (with stalk)”. A soluble FLAG-tagged ectodomain version of the C-type lectin Cire was also generated as a control molecule. […] Thus, soluble 5B6 can interact with membrane bound 5B6 in a cross-species manner.

[2] = target: T1, human 5B6 (CLEC9A), membrane bound; assay: flow cytometry on cells expressing 5B6

T1 sequence (Q6UXN8 whole entry): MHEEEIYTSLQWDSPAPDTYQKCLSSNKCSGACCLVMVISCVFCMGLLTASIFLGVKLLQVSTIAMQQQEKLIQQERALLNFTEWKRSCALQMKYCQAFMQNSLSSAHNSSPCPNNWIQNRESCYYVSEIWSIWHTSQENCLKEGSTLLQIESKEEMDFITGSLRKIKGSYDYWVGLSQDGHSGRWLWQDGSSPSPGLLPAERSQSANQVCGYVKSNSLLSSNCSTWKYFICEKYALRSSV

| Binder | binding result [1] | binding result [2] |
| --- | --- | --- |
| soluble FLAG-tagged human 5B6 including stalk (receptor, also called soluble h5B6; soluble human 5B6) not shown | binds |  |
| soluble FLAG-tagged mouse 5B6 including stalk (receptor, also called soluble m5B6; soluble mouse 5B6) ASISARQNSGLHHILDAQKMVWNHRGARQDYKDDDDKTREQQERLIQQDTALVNLTQWQRKYTLEYCQALLQRSLHSGTDASTGPVLLTSPQMVPQTLDSKETGSDCSPCPHNWIQNGKSCYYVFERWEMWNISKKSCLKEGASLFQIDSKEEMEFISSIGKLKGGNKYWVGVFQDGISGSWFWEDGSSPLSDLLPAERQRSAGQICGYLKDSTLISDKCDSWKYFICEKKAFGSCI | binds |  |
| rat mAb 24/04-10B4 (anti-5B6 / anti-Clec9A antibody) (antibody, V domains shown, Rat IgG2a, kappa, from hybridoma 24/04-10B4 (peptide immunisation); Used biotinylated or APC-conjugated in flow cytometry; also called anti-m5B6 mAb; anti-5B6 mAb) VH: AVQIVESGGGLVQPKESLKISCTASGFTFSNAAIYWVRQTPGKGLEWVGRIRTRPSKYATDYADSVRGRFTISRDDSKSMVYLQMDNLRTEDTAMYYCTPRATEDVPFYWGQGVMVTVSS VL: DIVMTQTPSSQAVSAGEKVTMNCKSSQSVLYDENKKNYLAWYQQKSGQSPKLLIYWASTGESGVPDRFIGSGSGTDFTLTISSVQAEDLAVYYCQQYYDFPPTFGGGTKLELKR |  | binds |
